Test: label from the status in PepcDB records

Sequence	protein production
MKIQCDVCEKAPATLICCADEAALCAKCDVEVHAANKLASKHQRLFLDSLSTKFPPCDICLEKAAFIFCVEDRALLCRDCDEATHAPNTRSANHQRFLATGIRVALSSTSCNQEVEKNHFDPSNQQSLSKPPTQQPAAPSPLWATDEFFSYSDLDCSNKKEQLDLGELDWLAEMGLFGDQPDQEALPVAEVPELSFSHLAHAHSYNRPMKSNVPNKKQRLEYRYDDEEEHFLVPDLG	not failed
DKLYPCQCGKSFTHKSQRDRHMSMHLGLRPYGCGVCGKKFKMKHHLVGHMKIHTGIKPYECNICAKRFMWRDSFHRHVTSCTKSYEAAKAEQNTTEA	not failed
MLYLNFPSVSIRLFASDESNTLKRWPVFPRSLRQLVMLAFLLILLPLLVLAWQAWQSLNALSDQAALVNRTTLIDARRSEAMTNAALEMERSYRQYCVLDDPTLAKVYQSQRKRYSEMLDAHAGVLPDDKLYQALRQDLNNLAQLQCNNSGPDAAAAARLEAFASANTEMVQATRTVVFSRGQQLQREIAERGQYFGWQSLVLFLVSLVMVLLFTRMIIGPVKNIERMINRLGEGRSLGNSVSFSGPSELRSVGQRILWLSERLSWLESQRHQFLRHLSHELKTPLASMREGTELLADQVVGPLTPEQKEVVSILDSSSRNLQKLIEQLLDYNRKQADSAVELDNVELAPLVETVVSAHSLPARAKMMHTDVDLKATACLAEPMLLMSVLDNLYSNAVHYGAESGNICLRSSLHGARVYIDVINTGTPIPQEERAMIFEPFFQGSHQRKGAVKGSGLGLSIARDCIRRMQGELYLVDESGQDVCFRIELPSSKNTK	failed
MSTSDPSAERPRDNFIYDIIDEDLEHGTYDGRVVTRFPPEPNGYLHIGHAKSIVLNFGIKHDYADRADTRCHLRFDDTNPDTESTEYVESIKEAVQWLGYDWEEHEYHASDYFEQFYQYAVTLIEQGDAYVDSLSEEEIREYRGTVDEPGTPSPYRDRSVEENLELFRKMRDGEFDDGEHVLRAKIDMSSPHMIMRDPLLFRIKHAHHYRRGDEWCIYPMYDYAHPLEDAIENITHSLCTLEFDNNRRVYDWVMEHCLDENELPSRPRQYEFNRLNLGYTVMSKTKLRHLIEEDLVGGWDDPRLPTISGLRRRGVPPSAIRSFCRTVGVTRSQSRVQIGHFEHALRDDLNAKAPRVMAVLDPLKVVATNVDADAVDWIDANHWPRDIDKDETRPVPFTREFYIERDDFREDPPEDFIRLAPGREVRLRHAYFFTCEEVVRDEDGVVTELRGTIDPETRDSTAPDGRSPEGTLHWVSAAHGLPFEARLYDRLFEVPDPDARDEHFTEFLNPDSLNVRQGVLEPAVRDLEADQRVQFERQGYFWPDPEASRPDALVYNQIVPLRDTWGEDEDGLTQEELARRRRAKEQRKQEQRRRSLDGKTDPAEHLDDAQRDRFDRFHDELGIDREDAATIAGNGALAGFFEQALAHYDAPVPVANWTVNELLGRLQDQTVADLPFGPDAFAELVRLVDTEFISTRGGDAVLDALLEDGGSPERIVDDRGLRQVDDTEALRPTVQSVLDDHPDEVSRYRDGKKGLIGFFMGQVMDATDGAASPELARELLQQELDPSA	failed
MKKLLFAIDDTEACERAAQYILDMFGKDADCTLTLIHVKPEFMLYGEAVLAAYDEIEMKEEEKAKLLTQKFSTFFTEKGINPFVVIKEGEPVEMVLEEAKDYNLLIIGSSENSFLNKIFASHQDDFIQKAPIPVLIVK	not failed
MAEVHVIGQIMGASGFSESSLFCKWGIHTGAAWKLLSGVREGQTQVDTPQIGDMAYWSHPIDLHFATKGLQGWPRLHFQVWSQDSFGRCQLAGYGFCHVPSSPGTHQLACPTWRPLGSWREQLARAFVGGGPQLLHGDTIYSGADRYRLHTAAGGTVHLEIGLLLRNFDRYGVEC	failed
MRDITAQGSNVEEAIQNALATLETTRDKVEVEVLDEGKKGIFGIGSRLAMVKVIEKEDGIQVAIDYLLDVATKMGAVITIDVEEVGKDVKLQIKGESLGMLIGKHGQTLNALQYLTQLIANKTTSQYKNIIVNVGDYRERRHETLVLLANKMADKALKTKRAVHLEPMPSFERKIIHAILSENEQIETHSEGRDPYRYIVIKPVKK	failed
SIAYIEPYFLENDAEAASAATAAGKSTDGVSESLNIQGEILCGGAAADIAGRDFGGMNCVKPLAVVRPVGPEDIAGAVKAALRSDKLTVAARGNGHSINGQAMAEGGLVVDMSTTAENHFEVGYLSGGDATAFVDVSGGALWEDVLKRCVSEYGLAPRSWTDYLGLTVGGTLSNAGVSGQAFRYGPQTSNVTELDVVTGNGDVVTCSEIENSELFFSVLGGLGQFGIITRARVLLQPAPDMVRWIRVVYTEFDEFTQDAEWLVSQKNESSFDYVEGFVFVNGADPVNGWPTVPLHPDHEFDPTRLPQSCGSVLYCLELGLHYRDSDSNSTIDKRVERLIGRLRFNEGLRFEVDLPYVDFLLRVKRSEEIAKENGTWETPHPWLNLFVSKRDIGDFNRTVFKELVKNGVNGPMLVYPLLRSRWDDRTSVVIPEEGEIFYIVALLRFVPPCAKVSSVEKMVAQNQEIVHWCVKNGIDYKLYLPHYKSQEEWIRHFGNRWSRFVDRKAMFDPMAILSPGQKIFNRSL	not failed
MDVSLPCIKIQVQTRYIEEQSNPEYQRFVFAYLITIKNLSSQTVQLMSRRWLITDADGKQTVVEGDGVVGEQPRIKANDEYTYSSGTALDTPVGVMQGQYLMIDEQGESFTVEIEPFRLAVPHVLN	not failed
MSEYLPGIIWLVVLLVVNAFFVGAEFAVISARRSQIEPKAEAGSKAAKTTLWAMEHATLMLATSQLGITVCSLVILNVSEPAIHHLLEIPLGLTSLSGEAIGIIAFVAALLLVTFLHVVLGEMVPKNISFSVPTRAALILAPPLVMVARILKPVIWTLNGIANSILRLFKVEPKDEATSAYTLDEVANIVEQSTRDGMLSDTSGTLTAAFEFTSKTVADVEVPIGEMVLLPATSTPADIQRAVAEHGYSRYILTDDDGTPTGYLHLKDVMDLTTREKFDQPVPAKRIRKLASAYSGSELEDALATMRRSGAHVARVFDAAGNTTGVLFLEDIIEELVGEVQDATST	not failed
MKITILSGGTGTPKLIQGFKEILPNEDISVIVNTGEDTYIGDIYLSPDIDTVLYTFSNLINDETWYGLKGDTFFCHEQLKNFGFDEVLRIGDKDRALKMHKTSLLKKGVPMSEIVDIERKSLSINSKIYPMSDEKIESKVLIEENNEKILLKFHDFWVSRRGNAKVLDIFYENSNYAKAADGVLKAIEESDFVIIGPSNPITSIGPILSISEIKDALKEKLVFAVSPIVGENPVSGPAGTLMHAKGYPVNAVGVYEYYKDIVDVLVLDNSDINKKKEMNCEVLYANTIMKTIDDKITLARNILDYYKSR	failed
MNVVIVRYGEIGTKSRQTRSWFEKILMNNIREALVTEEVPYKEIFSRHGRIIVKTNSPKEAANVLVRVFGIVSISPAMEVEASLEKINRTALLMFRKKAKEVGKERPKFRVTARRITKEFPLDSLEIQAKVGEYILNNENCEVDLKNYDIEIGIEIMQGKAYIYTEKIKGWGGLPIGTEGRMIGILHDELSALAIFLMMKRGVEVIPVYIGKDDKNLEKVRSLWNLLKRYSYGSKGFLVVAESFDRVLKLIRDFGVKGVIKGLRPNDLNSEVSEITEDFKMFPVPVYYPLIALPEEYIKSVKERLGL	not failed
MYLSLLKSLNRLSPRAWDFVQLTRIDKPIGIYLLLWPTLWAVWIAGKGSPSLNTVFIFVAGVFLMRAAGCVINDFADRKVDGHVKRTEQRPLVSGKVSSREALVLFAVLVSLSFVLVLFTNSTTIWLSFGGLALAACYPFMKRYTYYPQVVLGAAFSWGMPMAFTAETGELPAAAWLLYIANLLWTVGYDTYYAMVDRDDDLKIGVKSTAVLFGDADRVIILSLQGLALGCLALAGSRFELGAFFYMGLLVAAACFAWEFWSTRLRERDACFKAFLHNHWAGLAIFLGIVADYALR	failed
GVTYLLAKRKILYFEAVESKIFVYTEKDVYETTWKLYELEEKFKDSSFFRCSKSMILNIEWIEKIAPGFHGKFEASLFNREKVIISRQYAKILKQKLNLGGKGK	failed
MSDVISESALKSAKTEKNQKIYWDELKEGEQFSYGHYQVSEHENIDFAKRYDPMEFHVDPEKAKLSPIGALCASGIHTLGIMQRLTFDNIYTNWHIVAGRELRKCQFRLPVFVDDCLTVNMTIAKLSVDTRSDRGNAELTFDVKNAKGKTVLEVEGEIVLQRFPSI	failed
MLSAVRRANLYLNLFGFSKVPLIWLCHPKIIAIDSKHVEVRIPLRRRTKNHLNSMYFGALAVGADVAGGFLAMSKAQEKGEAISLAFKGVKAEFLKRPEADVHFVCNDGHVIDEMLDHTIATGERVNRDVKIIALCPSLHGQEPMAEFALTLSIKKAAQHTKLEHHHHHH	not failed
RTALRTEYALRQEAQAARKHAEGILASISDGFIALDEQYRFTYVNAAAERLIASTAEELIGKVYWDVYPMMLGTKIEQAYRRAMTERVACEFESYHPPSKRWFELRVAPTNGKSISVYFRDITEQKKAEAALRDINEQLEEQV	failed
MAPTLQGQWIKVGQKGGTGPGPRSSHGIAAVGDKLYSFGGELTPNKHIDKDLYVFDFNTQTWSIAQPKGDAPTVSCLGVRMVAVGTKIYIFGGRDENRNFENFRSYDTVTSEWTFLTKLDEVGGPEARTFHSMASDENHVYVFGGVSKGGTMNTPTRFRTIEAYNIADGKWAQLPDPGDNFEKRGGAGFAVVQGKIWVVYGFATSIVPGGKDDYESNAVQFYDPASKKWTEVETTGAKPSARSVFAHAVVGKYIIIFAGEVWPDLNGHYGPGTLSNEGYALDTETLVWEKLGEEGAPAIPRGWTAYTAATVDGKNGLLMHGGKLPTNERTDDLYFYAVNSA	failed
MEYGHHARPDSKRPLDEGSPAAAGLTSKKANEALTRNRELTTVLVKNLPKSYNQNKVYKYFKHCGPIIHVDVADSLKKNFRFARIEFARYDGALAAITKTHKVVGQNEIIVSHLTECTLWMTNFPPSYTQRNIRDLLQDINVVALSIRLPSLRFNTSRRFAYIDVTSKEDARYCVEKLNGLKIEGYTLVTKVSNPLEKSKRTDSATLEGREIMIRNLSTELLDENLLRESFEGFGSIEK	not failed
MGHHHHHHSHMTLRCLEPSGNGGEGTRSQWGTAGSAEEPSPQAARLAKALRELGQTGWYWGSMTVNEAKEKLKEAPEGTFLIRDSSHSDYLLTISVKTSAGPTNLRIEYQDGKFRLDSIICVKSKLKQFDSVVHLIDYYVQMCKDKRTGPEAPRNGTVHLYLTKPLYTSAPSLQHLCRLTINKCTGAIWGLPLPTRLKDYLEEYKFQV	failed
MKFLVENLNGSSFELEVDYRDTLLVVKQKIERSQHIPVSKQTLIVDGIVILREDLTVEQCQIVPTSDIQLEVSS	not failed
MEETILIVSFLLFLILSNVINRIFPKLPLPFIQLVFGILSGLVFHKSQVHIDPELFLAFVIAPLNFREGQESDIGSFIKYRAIILYLILPTVFLTAIVVGYVAGHLLPVSLPLAACFALGAALGPTDAVAFISIAKRFQFPKRAENILKLEGLLNDASGLVSFQFALTALVTGYFSLAKASLKLALAIMGGFLIGLLFAFLMRLCLTVLEKFDAADVTGALLLELTLPFVAYFVADLLGFSAIIAVVVAGVMQANRLKKVTLFDAQVDRVTSVIWETLNFILNGLVFLIFGRELTRIIGPLLTSNAYSNFDLISIVVLVTCTLFLVRFLAVSCFYAWRSFKYHKSFKKYWREIQLLTFSGVKGSVSIATILLLPKHSVIGELGYSLILFTVGAVTLMSFLTGLLVLPKLAPPLQVKDDYLIRLSILTKVLSVLEEDGKSSENQASFYAVIDNYNSRIRHLILEQESSDIKKDLAELQLMMLSIESDGLEAAYRYGNISIKEYRIYQRYLKYLERQVNRSFVSNITYSLTILMRVIRGIVHEFLTFGQGIRNRKKHFKNRKRLLAEVNRQHLTDLYLSNNDLILETLEDMEGYYNATLIDFLQNERIRDAELIKSGLFVERVIARITPDILNETLRGYYLERRTISEFERDGLISSKESQILRDNVNELESYSLRDSQSSIPYQLLDLKK	failed
